Assay [1] has as its target T1, HCV Core1-169 (hepatitis C virus (HCV-1), UniProt P26664 1-169).
T1 sequence: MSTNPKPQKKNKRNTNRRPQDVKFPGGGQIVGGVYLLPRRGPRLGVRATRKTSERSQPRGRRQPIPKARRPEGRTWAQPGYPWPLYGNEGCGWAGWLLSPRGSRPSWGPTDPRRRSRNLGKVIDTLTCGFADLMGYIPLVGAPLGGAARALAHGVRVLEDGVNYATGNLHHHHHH
Description: SPR sandwich, capture mAb C11-14.

Assay [2] concerns the target T2, HCV Core 134-171-TT Peptide (hepatitis C virus (HCV-1 numbering) …).
T2 construct: also called ALRZ-9 peptide
Description: SPR, captured mAb, peptide analyte.

Assay [3] deals with T1, HCV Core1-169. The experiment in a line: SPR sandwich, capture mAb C11-9.
Assay [4] deals with T1, HCV Core1-169. The experiment in a line: SPR sandwich, capture mAb C11-7.
For assay [5], the target named is T1, HCV Core1-169. Description: SPR sandwich, capture mAb C11-3.

These results are taken from patent US20170052184A1 (published 2017).

B1: HCV 208A-207 (antibody, V domains shown)
VH: QGQLQQPGAEFVKPGASLKLSCRASGYTFTSYWIHWVKQRPGQGLEWIGEIDPSDSYINQNQKFRGKATLTVDKSSSTAYMELSGLTSEDSAVYYCARHYYGVLDSWGQGTTLTVSS
VL: DIVLTQSPATLSVTPGDRVSLSCRASQRIYNYLHWYQQKSHESPRLLTKYASQSISGIPSRFSGSGSGTDFILTINSVETEDFGMYFCQQSNSWPLTFGAGTKLELRR
As for B1, the expected percent binding in assay [1], in assay [3], in assay [4] and in assay [5] was at most 1% throughout. Besides, the dissociation constant Kd (in general, the concentration at which binding is half-saturated) in assay [2] is below 0.032 nM. Moreover, the koff – broadly, the rate constant with which the complex falls apart – in assay [2] was below 1e-05 s⁻¹. The kon – broadly, a measure of how fast the partners come together – in assay [2] is 310000 M⁻¹ s⁻¹.

B2: HCV 208A-134 (antibody, V domains shown)
VH: QGQMQQSGAELAKPGASVKLSCKTSGFTFSSSYISWLKQKPGQSLEWIAWIYAGTGNTNYNQKFTDKAQLTVDTSSSTAYMQLSSLTTEDSAIYYCAISGTGFTYWGQGTLVTVSA
VL: EVLMTQSPLSLPVSLGDQASISCRSSQSLEHTNGNTYLEWFLQRPGQPPKLLIYKVSSRFSGVPDRFSGSGSGTDFTLKISRVEAEDLGVYYCFQGSHVPFTFGSGTKLAIKR
Turning to B2, the expected percent binding in assay [1], in assay [3], in assay [4] and in assay [5] was at most 1% each time. Further, the Kd in assay [2] was 2.1 nM. Also, the koff in assay [2] is 3.8e-05 s⁻¹. The molecule further showed a kon in assay [2] of 18000 M⁻¹ s⁻¹.

B3: HCV 208A-293 (antibody, V domains shown)
VH: EVQLQQSGPELVKPGASVKISCKASGFTFTEYAMHWMKQSHGKSLEWIGGINPTNGDAIYNQKFKDKAKLTVDRSSSTAYMELRSLTSDDSALFYCARRELDYFPSWGQGTTLTVSS
VL: DIVLTQSPASLIVSLGQRATISCRASQSVSTSRFSYVHWIQQKPGQPPKLLIKYASNLESGVPVRFSGSGSGTDFILNIHPVEEEDTATYFCQHSWEFPFTFGSGTKLEIKR
For the molecule B3, the expected percent binding in assay [1] was 16.4%; in assay [3], 11%; in assay [4], 20.9%; in assay [5], 17.9%. The Kd in assay [2] came out at 0.11 nM. The molecule further returned a koff in assay [2] of 0.00023 s⁻¹. In assay [2], the kon was determined as 2.1e+06 M⁻¹ s⁻¹.

B4: HCV 208B-560 (antibody, V domains shown)
VH: EVQLQQSGPELEKPGASVKISCKTSGYTFTEYAMHWVKQSHGMSLEWIGGINPSNGNAIYNQIFKDKATLTVDRSSSTAYMGLRSLTFGDSGVYFCVRRQLDFFDYWGQGASLTVSS
VL: DIVVTQSPASLAVSLGQRATISCRASQSVSTSRYSYLHWYQQKPGQPPKLLIKYASNLESGVPARFSGSGSGTDFTLNIHPVGEEDTATYYCQHSWEFPFTFGSGTKLEIKR
Regarding B4, the expected percent binding in assay [1] was found to be 12%; in assay [3], 8.3%; in assay [4], 15.5%; in assay [5] it was 10.6%. Moreover, the Kd in assay [2] stood at 0.23 nM. Besides, in assay [2], the off-rate (koff) worked out at 0.00026 s⁻¹. Moreover, in assay [2], the kon came to 1.1e+06 M⁻¹ s⁻¹.

B5: HCV 208A-920 (antibody, V domains shown)
VH: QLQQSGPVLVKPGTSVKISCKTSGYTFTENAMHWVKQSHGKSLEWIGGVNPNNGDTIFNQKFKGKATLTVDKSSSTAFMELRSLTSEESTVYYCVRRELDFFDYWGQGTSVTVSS
VL: DIVLTQSPASLAVSLGQRATISCRASQSVSTSRYSYMHWYQQKPGQPPKLLIKYASNLESGVPARFSGSGSGTDFTLNIHPVAEEDTAAYYCQHSWEFPFTFGSGTKLEIKR
Turning to B5, the expected percent binding in assay [1] is 19.1%; in assay [3], 13.2%; in assay [4], 22.9%; in assay [5], 19.3%. In assay [2], this molecule displayed a Kd of 0.39 nM. For the same molecule, the koff in assay [2] is 0.00056 s⁻¹. The molecule further came in with a kon in assay [2] of 1.5e+06 M⁻¹ s⁻¹.

B6: HCV 208B-251 (antibody, V domains shown)
VH: QLQQSGPVLVKPGASVKISCKTSGYTFTENAMHWVKQSHGKSLEWIGGVNPNNGDTIYNQKFKGKATLTVDKSSSTAFMELRSLTSEESPVYFCVRRELDFFDYWGQGTSVTVSS
VL: DIVLTQSPASLAVSLGKKATISCRASQSVSTSRYSYMHWYQQKPGHPPKLLIKYASNLESGVPARFSGSGSGTDFTLNIHPVAEEDTAAYYCQHSWEFPFTFGSGTKLEIKR
As to B6, the expected percent binding in assay [1] was 18.2%; in assay [3] it was 12.3%; in assay [4], 20.1%; in assay [5] it was 16.6%. In addition, in assay [2], the Kd stood at 0.58 nM. The molecule also returned a koff in assay [2] of 0.00065 s⁻¹. The kon in assay [2] is 1.1e+06 M⁻¹ s⁻¹.

B7: HCV 208A-334 (antibody, V domains shown)
VH: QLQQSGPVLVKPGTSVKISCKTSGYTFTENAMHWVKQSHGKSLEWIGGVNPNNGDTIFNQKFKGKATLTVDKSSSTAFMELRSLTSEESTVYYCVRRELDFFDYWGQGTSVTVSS
VL: DIVLTQSPASLAVSLGQRATISCRASQSVSTSRYSYMHWYQQKPGQPPKLLIKYASNLESGVPARFSGSGSGTDFTLNIHPVAEEDTAAYYCQHSWGFPFTFGSGTKLEIKR
As to B7, the expected percent binding was determined as 15.9% in assay [1], 10.3% in assay [3], 20.6% in assay [4] and 17.2% in assay [5]. The same molecule had a Kd in assay [2] of 0.34 nM. This molecule also returned a koff in assay [2] of 0.00057 s⁻¹. The molecule further had a kon in assay [2] of 1.7e+06 M⁻¹ s⁻¹.

B8: HCV 208A-133 (antibody, V domains shown)
VH: QLQQSGPVLVGPGASVMISCKTSGYTFTENAMHWVEQSHGKSLEWIGGVNPNNGDTIFNQKFKGKATLTVDKSSSTAFMEFRSLTSEESTVYYCVRRELDFFDYWGQGTSVTVSS
VL: DIVLTQSPASLAVSLGQRATISCRASQSVSTSRYSYMHWYQQKPGQPPKLLIKYASNLESGVPARFSGSGSGTDFTLNIHPVAEEDTATYYCQHSWEFPFTFGSGTKLEIKR
In the case of B8, the expected percent binding was 9.3% in assay [1], 5.8% in assay [3], 13.9% in assay [4] and 9.8% in assay [5]. Also, the Kd in assay [2] turned out to be 0.41 nM. The molecule also yielded a koff in assay [2] of 0.0005 s⁻¹. Also, in assay [2], the kon came to 1.2e+06 M⁻¹ s⁻¹.

B9: HCV 208A-110 (antibody, V domains shown)
VH: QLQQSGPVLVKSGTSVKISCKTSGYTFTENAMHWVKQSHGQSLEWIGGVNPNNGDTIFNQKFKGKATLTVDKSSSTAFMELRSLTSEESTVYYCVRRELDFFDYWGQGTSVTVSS
VL: DIVLTQSPASLAVSLGQRATISCRASQSVSTSRYSYMHWYQQKPGQPPKLLIKYASNLESGVPARFSGSGSGTDFTLNIHPVAEEDTAAYYCQHSWEFPFTFGSGTKLEIKR
For the molecule B9, the expected percent binding in assay [1] turned out to be 14.8%; in assay [3], 9.4%; in assay [4], 21.1%; in assay [5], 15.7%. This molecule also registered a dissociation constant (Kd) in assay [2] of 0.33 nM. Further, the koff in assay [2] is 0.00055 s⁻¹. The molecule also gave a kon in assay [2] of 1.7e+06 M⁻¹ s⁻¹.

B10: HCV 208B-556 (antibody, V domains shown)
VH: QLQQSGPVLVKPGASVMISCKTSGYTFTENAMHWVKQSHGKSLEWIGGVNPNNGDTIFNQKFKGKATLTVDKSSSTAFMEFRSLTSEESTVYYCVRRELDFFDYWGQGTSVTVSS
VL: DIVLTQSPASLAVSLGQRATISCRASQSVSTSRYSYMHWYQQKPGQPPKLLIKYASNLESGVPARFSGSGSGTDFTLNIHPVAEEDTATYYCQHSWEFPFTFGSGTKLEIKR
B10: the expected percent binding in assay [1] was found to be 12.7%; in assay [3], 8.3%; in assay [4] it was 15.3%; in assay [5] it was 11.5%. The same molecule returned a Kd in assay [2] of 0.4 nM. Further, the koff in assay [2] amounted to 0.0006 s⁻¹. For the same molecule, the kon in assay [2] was 1.5e+06 M⁻¹ s⁻¹.

B11: HCV 208B-1094 (antibody, V domains shown)
VH: EVQLQQSGPELVKPGASVKISCKTSGYTFTEYAMHWMKQSHGKSLEWIGGINPTNGDTIYNQRFKDKAKLTVDRSSSTAYMELRSLTSDDSALFYCARRELDYFASWGQGTTLTVSS
VL: DIVLTQSPASLIVSLGQTATISCRASQSLSTSRFSYVHWIQQKPGQPPKLLIKYASNLESGVPVRFSGSGSGTDFTLNIHPVEEEDTATYFCQHSWEFPFTFGSGTKLKIKR
Consider B11, for which the expected percent binding in assay [1] worked out at 27.8%; in assay [3], 19.8%; in assay [4] it was 28.4%; in assay [5] it was 24.4%. Also, the Kd in assay [2] stood at 0.16 nM. Moreover, the koff in assay [2] came out at 0.00025 s⁻¹. The kon in assay [2] is 1.5e+06 M⁻¹ s⁻¹.

B12: HCV 208A-741 (antibody, V domains shown)
VH: QLQQSGPVLVKPGASVMISCKTSGYTFTENAMHWVKQSHGKSLEWIGGVNPNNGDTIFNQKFKGKATLTVDKSSSTAFMELRSLTSEESTVYYCVRRELDFFDYWGQGTSVTVSS
VL: DIVLTQSPASLAVSLGQRTTISCGASQSVSTSRFSYMHWYQQKPGQPPKLLIKYASNLESGVPARFSGSGSGTDFTLNIHPVAEEDTAAYYCQHSWEFPFTFGSGTKLEIKR
B12: the expected percent binding in assay [1] is 21.2%; in assay [3] it was 14.2%; in assay [4], 22.7%; in assay [5] it was 19.4%. In addition, the affinity in assay [2], expressed as Kd, was 0.41 nM. The same molecule had a koff in assay [2] of 0.00069 s⁻¹. In assay [2], the kon is 1.7e+06 M⁻¹ s⁻¹.

B13: HCV 208A-159 (antibody, V domains shown)
VH: QLQQSGPAQVKPGASVMISCKTSGYTFTENAMHWVKQSHGKSLEWIGGVNPNNGDTIFNQKFKDKAALTVDKSSSTAFMELRSLTSEESTVYYCVRRELDFFDYWGQGTSVTVSS
VL: DIVLTQSPASLAVSLGQRATISCRASQSVSTSRYSYVHWYQQKPGQPPKLLIKYAANLESGVPARFSGSGSGTDFTLNIHPVAEEDAAAYYCQHSWEFPFTFGSGTKLEIKR
Regarding B13, the expected percent binding in assay [1] came out at 5.5%; in assay [3], 3.3%; in assay [4], 7%; in assay [5], 4.6%. In addition, in assay [2], the Kd turned out to be 0.45 nM. In assay [2], the koff was 0.00065 s⁻¹. Besides, the kon in assay [2] is 1.4e+06 M⁻¹ s⁻¹.
